Columns and labels:
U2OS cells = test: Live-cell delivery to U2OS cells, confocal laser scanning microscopy; type: cell-based
HeLa cells = test: Live-cell delivery to HeLa cells, CLSM and FiJi image analysis; type: cell-based; details: CLSM

TAMRA-SUMO2-cR10D [compound 15]
signals in lysosomes or endosomes (punctuates) compared to analogue 14 (U2OS cells; 4 μM in PBS, 37 °C, 45 min, CLSM): significantly fewer signals

TAMRA-Ub(S20C(cR10D))-PA [compound 11]
live-cell delivery (TAMRA signal, CLSM) (U2OS cells; 2 μM in PBS, two independent sets of experiments (Figure S23)): significantly good

TAMRA‐Cys(cR10)‐Ub [compound 7]
endosomal or lysosomal entrapment / cytosolic availability of protein (HeLa cells): cytosolic availability of protein was not improved
